Test results as given in PMC3751857.

Target: Gag of the HIV-1 YP- mutant (HIV-1 (pNL4-3))

Flag-DUb-TSG101 (from UniProt P10220 15-260)
release of HIV-1 YP- virus from 293T cells co-expressing Flag-DUb-TSG101 (Figure 2A, lane 3); inactive DUb*-TSG101 and DUb-TSG101 M95A had no effect: > 95%
